Measurements: publication PMC6044475

Experiments:
Experiment in all cases: SEC
[1] = molecular target: Eca Y396A (Enterococcus casseliflavus)
[2] = molecular target: Eca E318Q (Enterococcus casseliflavus)
[3] = molecular target: Eca T320A (Enterococcus casseliflavus)

Substance: Eca Y396A (natural protein)
- stoichiometry N [1]: 2

Substance: Eca E318Q (natural protein)
- stoichiometry N [2]: 2

Substance: Eca T320A (natural protein)
- stoichiometry N [3]: 2
